# Measured values published in patent US20230313187A1, “MODIFICATIONS OF MAMMALIAN CELLS USING ARTIFICIAL MICRO-RNA TO ALTER THEIR PROPERTIES AND THE COMPOSITIONS OF THEIR PRODUCTS” (DNA TWOPOINTO INC., priority 2020, published 2023).
# Values joined by “and” are separate entries in the source; they are usually repeats but may differ in a detail not shown here. Equal entries are not always repeated.
# B1: SEQ ID NO: 600: five-hairpin amiRNA, two guides to interferon receptor subunit 1 mRNA and three to subunit 2 mRNA (nucleic acid)
# chain: ATCTGATCTTCTGAAGAAAATATATTTCTTTTTATTCATAGCTCTTAACTAGTGGTGATAGCAATGTCAGCAGTGCCTAAGACTATCAGCAAGAACCAGGGTGAAGCCACAGATGCCTGGTTCTTACTGATAGTCTCAAGTAAGGTTGACCATACTCTACTCTAGTTATATTCTTTAGGCACGAATGTGTGTTTAAAAAAAATAAAAACTAGTGGTGATAGCAATGTCAGCAGTGCCTTAAAATAACACACAAGAGCCATGTGAAGCCACAGATGATGGCTCTTGCGTGTTATTTTCAAGTAAGGTTGACCATACTCTACTCTAGAGTTGTGTTTTAATGTATATTAATGTTACTAATGTGTTTACTAGTGGTGATAGCAATGTCAGCAGTGCCTTTGAAGATAACTTTGTCCCCGGGTGAAGCCACAGATGCCGGGGACAACGTTATCTTCACAAGTAAGGTTGACCATACTCTACTCTAGGTTATTTTTAGTATGATTCTGTAAAAATGAATTAATACTAACTAGTGGTGATAGCAATGTCAGCAGTGCCTTTAAACAGTAAGTAGTCTCTGGGTGAAGCCACAGATGCCAGAGACTAATTACTGTTTACAAGTAAGGTTGACCATACTCTACTCTAGATTTTTCAGATGTATCATCTCTTAAAATACTGTAATTGCAACTAGTGGTGATAGCAATGTCAGCAGTGCCTTAAACAACAATGGATCCCCAAAGTGAAGCCACAGATGTTTGGGGATCAATTGTTGTTTCAAGTAAGGTTGACCATACTCTACTCTAGTCAGTTTTATTGATAGTCTTTTCAGTATTATTGATAATCTT
# B2: SEQ ID NO: 202: three-hairpin amiRNA, guides SEQ ID NOs 29, 30, 31 complementary to Homo sapiens FUT8 mRNA (nucleic acid)
# chain: ATCTGATCTTCTGAAGAAAATATATTTCTTTTTATTCATAGCTCTTAACTAGTGGTGATAGCAATGTCAGCAGTGCCTTTGGTCGTTTATCTCTTCCATCGTGAAGCCACAGATGGATGGAAGAGCTAAACGACCACAAGTAAGGTTGACCATACTCTACTCTAGAGTTGTGTTTTAATGTATATTAATGTTACTAATGTGTTTACTAGTGGTGATAGCAATGTCAGCAGTGCCTTTCATCTACAGTTTGGCTGAAAGTGAAGCCACAGATGTTTCAGCCAACCTGTAGATGACAAGTAAGGTTGACCATACTCTACTCTAGGTTATTTTTAGTATGATTCTGTAAAAATGAATTAATACTAACTAGTGGTGATAGCAATGTCAGCAGTGCCTTTAAATTACACAATATGGCAGTGTGAAGCCACAGATGACTGCCATATCGTGTAATTTACAAGTAAGGTTGACCATACTCTACTCTAGTCAGTTTTATTGATAGTCTTTTCAGTATTATTGATAATCTT
# B3: SEQ ID NO: 601: four-hairpin amiRNA, two guides to interferon receptor subunit 1 mRNA and two to subunit 2 mRNA (nucleic acid)
# chain: ATCTGATCTTCTGAAGAAAATATATTTCTTTTTATTCATAGCTCTTAACTAGTGGTGATAGCAATGTCAGCAGTGCCTTAGTGTAGACAACAGTACCTCTGTGAAGCCACAGATGAGAGGTACTATTGTCTACACTCAAGTAAGGTTGACCATACTCTACTCTAGTTATATTCTTTAGGCACGAATGTGTGTTTAAAAAAAATAAAAACTAGTGGTGATAGCAATGTCAGCAGTGCCTTTCCACGTCTGTCTTGTCCTACGTGAAGCCACAGATGGTAGGACAAGCCAGACGTGGACAAGTAAGGTTGACCATACTCTACTCTAGAGTTGTGTTTTAATGTATATTAATGTTACTAATGTGTTTACTAGTGGTGATAGCAATGTCAGCAGTGCCTTAAACAACAATGGATCCCCAAAGTGAAGCCACAGATGTTTGGGGATCAATTGTTGTTTCAAGTAAGGTTGACCATACTCTACTCTAGGTTATTTTTAGTATGATTCTGTAAAAATGAATTAATACTAACTAGTGGTGATAGCAATGTCAGCAGTGCCTTAACACAGTACCGCCTTAGTGCGTGAAGCCACAGATGGCACTAAGGCAGTACTGTGTTCAAGTAAGGTTGACCATACTCTACTCTAGTCAGTTTTATTGATAGTCTTTTCAGTATTATTGATAATCTT
# Columns and labels:
# [1] = system: Cricetulus griseus interferon receptor subunit 1 mRNA and subunit 2 mRNA; test: Expression of human interferon beta from CHO cells (ELISA), amiRNA to both interferon receptor subunits; format: cell-based; conditions: for Average Titer: average of duplicate cultures; for interferon beta expression compared with the control transposon: control transposon expressed 48 μg/ml; for Titer: 10-day fed batch
# Source text: One multi-hairpin amiRNA, with nucleotide sequence SEQ ID NO: 600, comprised five hairpins; the first hairpin comprised a guide strand with nucleotide sequence SEQ ID NO: 103, immediately followed by a loop with nucleotide sequence SEQ ID NO: 241 and passenger strand with nucleotide sequence SEQ ID NO: 188; the second hairpin comprised a guide strand with nucleotide sequence SEQ ID NO: 95, immediately followed by a loop with nucleotide sequence SEQ ID NO: 241 and passenger strand with nucleotide sequence SEQ ID NO: 180; the third hairpin comprised a guide strand with nucleotide sequence SEQ ID NO: 104, immediately followed by a loop with nucleotide sequence SEQ ID NO: 241 and a passenger strand with nucleotide sequence SEQ ID NO: 189; the fourth hairpin comprised a guide strand with nucleotide sequence SEQ ID NO: 97, immediately followed by a loop with nucleotide sequence SEQ ID NO: 241 and a passenger strand with nucleotide sequence SEQ ID NO: 182; the fifth hairpin comprised a guide strand with nucleotide sequence SEQ ID NO: 102, immediately followed by a loop with nucleotide sequence SEQ ID NO: 241 and a passenger strand with nucleotide sequence SEQ ID NO: 187. Two of these five guide strand sequences were a 22 base sequence that was an exact reverse complement of a different region within the Cricetulus griseus interferon receptor subunit 1 mRNA (with nucleotide sequence SEQ ID NO: 19); three of these five guide strand sequences were a 22 base sequence that was an exact reverse complement of a different region within the Cricetulus griseus interferon receptor subunit 2 mRNA (with nucleotide sequence SEQ ID NO: 20). Each passenger strand sequence was complementary to its corresponding guide strand sequence, except that the bases in the passenger strand sequences corresponding to the 5′ base of the guide strand and the twelfth base of the guide strand were changed to be non-complementary.
# One multi-hairpin amiRNA, with nucleotide sequence SEQ ID NO: 601, comprised four hairpins; the first hairpin comprised a guide strand with nucleotide sequence SEQ ID NO: 101, immediately followed by a loop with nucleotide sequence SEQ ID NO: 241 and passenger strand with nucleotide sequence SEQ ID NO: 186; the second hairpin comprised a guide strand with nucleotide sequence SEQ ID NO: 99, immediately followed by a loop with nucleotide sequence SEQ ID NO: 241 and passenger strand with nucleotide sequence SEQ ID NO: 184; the third hairpin comprised a guide strand with nucleotide sequence SEQ ID NO: 102, immediately followed by a loop with nucleotide sequence SEQ ID NO: 241 and a passenger strand with nucleotide sequence SEQ ID NO: 187; the fourth hairpin comprised a guide strand with nucleotide sequence SEQ ID NO: 106, immediately followed by a loop with nucleotide sequence SEQ ID NO: 241 and a passenger strand with nucleotide sequence SEQ ID NO: 191. Two of these four guide strand sequences were a 22 base sequence that was an exact reverse complement of a different region within the Cricetulus griseus interferon receptor subunit 1 mRNA (with nucleotide sequence SEQ ID NO: 19); two of these four guide strand sequences were a 22 base sequence that was an exact reverse complement of a different region within the Cricetulus griseus interferon receptor subunit 2 mRNA (with nucleotide sequence SEQ ID NO: 20). Each passenger strand sequence was complementary to its corresponding guide strand sequence, except that the bases in the passenger strand sequences corresponding to the 5′ base of the guide strand and the twelfth base of the guide strand were changed to be non-complementary. […]
# [2] = system: Homo sapiens alpha-(1,6)-fucosyl transferase (FUT8) mRNA; test: Inhibition of antibody fucosylation in HEK cell pools, amiRNA directed toward FUT8; format: cell-based
# Source text: Two different multi-hairpin amiRNA sequences were designed to target genes involved in the fucosylation pathway in human cells: alpha-(1,6)-fucosyl transferase (FUT8), GDP-Mannose 4,6-dehydratase (GMD), and GDP-fucose transporter 1 (GFT). One Multi-hairpin amiRNA, with nucleotide sequence SEQ ID NO: 202 comprised three hairpins; the first hairpin comprised guide strand sequence SEQ ID NO: 29, immediately followed by loop sequence SEQ ID NO: 241 and passenger strand sequence SEQ ID NO: 114, the second hairpin comprised guide strand sequence SEQ ID NO: 30, immediately followed by loop sequence SEQ ID NO: 241 and passenger strand sequence SEQ ID NO: 115, the third hairpin comprised guide strand sequence SEQ ID NO: 31, immediately followed by loop sequence SEQ ID NO: 241 and passenger strand sequence SEQ ID NO: 116. Each of these three guide strand sequences was a 22 base sequence that was an exact reverse complement of a different region within the Homo sapiens alpha-(1,6)-fucosyl transferase (FUT8) mRNA. Each passenger strand sequence was complementary to its corresponding guide strand sequence, except that the bases in the passenger strand sequences corresponding to the 5′ base of the guide strand and the twelfth base of the guide strand were changed to be non-complementary. The first and twelfth bases of guide strand with SEQ ID NO: 29 are T and T respectively, the corresponding bases in the corresponding passenger strand sequence SEQ ID NO: 114 are C and C respectively. The first and twelfth bases of guide strand with SEQ ID NO: 30 are T and T respectively, the corresponding bases in the corresponding passenger strand sequence SEQ ID NO: 115 are C and C respectively. The first and twelfth bases of guide strand with SEQ ID NO: 31 are T and A respectively, the corresponding bases in the corresponding passenger strand sequence SEQ ID NO: 116 are C and C respectively. Each hairpin in multi-hairpin amiRNA nucleotide sequence SEQ ID NO: 202 further comprised additional stem-stabilizing sequences, with stem sequence SEQ ID NO: 255 immediately preceding the guide strand sequence, and stem sequence SEQ ID NO: 256 immediately following the passenger strand sequence. Multi-hairpin amiRNA nucleotide sequence SEQ ID NO: 202 further comprised an unstructured sequence with SEQ ID NO: 251 to the 5′ of the first hairpin, and an unstructured sequence with SEQ ID NO: 253 to the 3′ of the third hairpin. […]
# The multi-hairpin amiRNA sequences were placed to the 3′ of an open reading frame encoding a red fluorescent protein (with nucleotide sequence SEQ ID NO: 279) and followed by a rabbit globin polyadenylation sequence. […]
# [3] = interferon beta in supernatant, first of duplicate cultures
# [4] = interferon beta, second of duplicate cultures
Molecule,Average Titer [1] [µg/mL],interferon beta expression compared with the control transposon [1],"Titer [1, 3] [µg/mL]","Titer [1, 4] [µg/mL]","G0 + G1 % (area) ([2]; afucosylated antibody, HEK pool, 7-day transient culture, listed as 202)","Titer ([2]; antibody in culture supernatant, HEK pool, 7-day culture, listed as 202)",reduction of antibody fucosylation ([2]; both replicates of HEK cell pools (Table 3 rows 3 and 4)),"G0F + G1F (% area) ([2]; fucosylated antibody, HEK pool, 7-day transient culture, listed as 202)"
B1,79.8,as much as twice the expression levels of interferon beta as the control transposon,80.3,79.2,,,,
B2,,,,,90 % (area) and 89 % (area),353 mg/L and 316 mg/L,approximately 90%,10 % area and 11 % area
B3,88.0,as much as twice the expression levels of interferon beta as the control transposon,97.3,78.6,,,,
